Source: paper PMC11002309, “Cancer-associated polybromo-1 bromodomain 4 missense variants variably impact bromodomain ligand binding and cell growth suppression” (The Journal of Biological Chemistry, 2024)

Target: T1, biotinylated histone H3K14ac(1–20) peptide (acetyl-lysine at K14; biotin on the added C-terminal lysine; C-terminal amide (CONH2))
T1 construct: histone H3, residues 1-20; added C-terminal lysine that carries the biotin; also called H3K14ac peptide; Kac peptide; source: synthetic peptide, bought: Peptide 2.0
Experiment: AlphaScreen or HTRF; full titration: His6-PBRM1-BD4 protein 0.001–2 μM against 50 nM biotinylated H3K14ac(1–20) peptide; streptavidin donor and nickel-chelate acceptor beads; 1× AlphaLISA Epigenetics buffer, 0.05% Tween 20, 2 μM TCEP; room temperature; n = 3
Conditions: both partners purified

Row | EC50 | fold reduction of affinity against WT | Binder
1 | 490 ± 130 nM | – | PBRM1-BD4 M586I (domain or fragment, human, UniProt Q86U86-5 496-637, looked up, polybromo-1 (PBRM1), fourth bromodomain (BD4) construct, aa 496-637, cancer-associated missense variant; source: E. coli BL21(DE3), purified (Ni-NTA, gel filtration)) GDSMISSATSDTGSAKRKSKKNIRKQRMKILFNVVLEAREPGSGRRLCDLFMVKPSKKDYPDYYKIILEPMDLKIIEHNIRNDKYAGEEGIIEDMKLMFRNARHYNEEGSQVYNDAHILEKLLKEKRKELGPLPDDDDMASP
2 | 210 ± 20 nM | 2 to 15 fold | PBRM1-BD4 R576L (domain or fragment, human, UniProt Q86U86-5 496-637, looked up, polybromo-1 (PBRM1), fourth bromodomain (BD4) construct, aa 496-637, cancer-associated missense variant; source: E. coli BL21(DE3), purified (Ni-NTA, gel filtration)) GDSMISSATSDTGSAKRKSKKNIRKQRMKILFNVVLEAREPGSGRRLCDLFMVKPSKKDYPDYYKIILEPMDLKIIEHNILNDKYAGEEGMIEDMKLMFRNARHYNEEGSQVYNDAHILEKLLKEKRKELGPLPDDDDMASP
3 | 1000 ± 90 nM | 2 to 15 fold | PBRM1-BD4 P556S (domain or fragment, human, UniProt Q86U86-5 496-637, looked up, polybromo-1 (PBRM1), fourth bromodomain (BD4) construct, aa 496-637, cancer-associated missense variant; source: E. coli BL21(DE3), purified (Ni-NTA, gel filtration)) GDSMISSATSDTGSAKRKSKKNIRKQRMKILFNVVLEAREPGSGRRLCDLFMVKPSKKDYSDYYKIILEPMDLKIIEHNIRNDKYAGEEGMIEDMKLMFRNARHYNEEGSQVYNDAHILEKLLKEKRKELGPLPDDDDMASP
